Substitutions are numbered along the chain they refer to. In names and notes the source's numbering stands.
B1: YC403 (hu5c8 aglycosylated IgG4.P S228P, T299A, T307P, L309K, D399S) (antibody)
heavy: QVQLVQSGAEVVKPGASVKLSCKASGYIFTSYYMYWVKQAPGQGLEWIGEINPSNGDTNFNEKFKSKATLTVDKSASTAYMELSSLRSEDTAVYYCTRSDGRNDMDSWGQGTLVTVSSASTKGPSVFPLAPCSRSTSESTAALGCLVKDYFPEPVTVSWNSGALTSGVHTFPAVLQSSGLYSLSSVVTVPSSSLGTKTYTCNVDHKPSNTKVDKRVESKYGPPCPPCPAPEFLGGPSVFLFPPKPKDTLMISRTPEVTCVVVDVSQEDPEVQFNWYVDGVEVHNAKTKPREEQFNSAYRVVSVLPVKHQDWLNGKEYKCKVSNKGLPSSIEKTISKAKGQPREPQVYTLPPSQEEMTKNQVSLTCLVKGFYPSDIAVEWESNGQPENNYKTTPPVLSSDGSFFLYSRLTVDKSRWQEGNVFSCSVMHEALHNHYTQKSLSLSLG
light: DIVLTQSPATLSVSPGERATISCRASQRVSSSTYSYMHWYQQKPGQPPKLLIKYASNLESGVPARFSGSGSGTDFTLTISSVEPEDFATYYCQHSWEIPPTFGGGTKLEIKRTVAAPSVFIFPPSDEQLKSGTASVVCLLNNFYPREAKVQWKVDNALQSGNSQESVTEQDSKDSTYSLSSTLTLSKADYEKHKVYACEVTHQGLSSPVTKSFNRGEC
modifications: chain 1 pos 1: N-terminal Gln largely converted to pyroglutamate, written Q; Fc aglycosylated
B2: EC326 (hu5c8 IgG4.P S228P, T307P, L309K, D399S, glycosylated) (antibody)
heavy: B1 heavy with A297T
light: B1 light
modifications: heavy chain pos 1: Gln largely converted to pyroglutamate (Table 3.3), written Q; N-linked glycan (G0F, G1F, G2F, G0) at EU N297 = heavy chain pos 295
B3: EC331 (hu5c8 aglycosylated IgG4.P T299K, T307P with IgG1 CH3) (antibody)
heavy: B1 heavy with A297K, K307L, Q353R, E354D, M356L, S397D, R407K, E417Q, L443P
light: B1 light
modifications: chain 1 pos 1: N-terminal Gln largely converted to pyroglutamate, written Q; Fc aglycosylated
B4: YC401 (hu5c8 aglycosylated IgG4.P S228P, T299A, T307P, D399S) (antibody)
heavy: B1 heavy with K307L
light: B1 light
modifications: chain 1 pos 1: N-terminal Gln largely converted to pyroglutamate, written Q; Fc aglycosylated

Tests used:
CD64 (FcγRI) [1] = target: CD64 (FcγRI) (UniProt P12314); experiment: solution affinity SPR: antibody titrated into CD64, inhibition of CD64 binding to immobilized IgG1 MAb; average of two titrations
CD16 (FcγRIIIa V158) = CD16 (FcγRIIIa V158) (UniProt P08637); experiment: solution affinity SPR: antibody titrated into CD16, inhibition of CD16 binding to immobilized IgG1 MAb; average of two titrations
CD64 (FcγRI) [2] = target: CD64 (FcγRI) (UniProt P12314); experiment: solution affinity SPR: inhibition of CD64 binding to immobilized IgG1 MAb

Chain of CD64 (FcγRI) (P12314 16-288 limits assumed): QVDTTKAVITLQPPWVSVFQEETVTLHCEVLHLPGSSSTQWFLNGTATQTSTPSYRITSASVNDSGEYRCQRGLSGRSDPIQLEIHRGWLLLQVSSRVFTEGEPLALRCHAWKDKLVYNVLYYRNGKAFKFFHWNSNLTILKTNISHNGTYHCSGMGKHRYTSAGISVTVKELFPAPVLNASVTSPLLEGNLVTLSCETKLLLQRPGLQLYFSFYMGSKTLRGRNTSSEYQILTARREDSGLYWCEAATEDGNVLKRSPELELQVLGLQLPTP
Chain of CD16 (FcγRIIIa V158) (P08637 17-208 F176V limits assumed): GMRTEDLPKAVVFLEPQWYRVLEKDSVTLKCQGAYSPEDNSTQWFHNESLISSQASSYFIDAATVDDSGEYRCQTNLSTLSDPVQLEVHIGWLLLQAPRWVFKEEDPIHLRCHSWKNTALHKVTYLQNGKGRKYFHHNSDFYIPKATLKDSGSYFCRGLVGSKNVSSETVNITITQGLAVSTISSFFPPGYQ

| IC50 (CD64 (FcγRI) [1]) | IC50 (CD16 (FcγRIIIa V158)) | IC50 (CD64 (FcγRI) [2]) | Binder |
| --- | --- | --- | --- |
| 434 µM | – | – | B1 |
| 7.56 µM | 380 µM | 8 µM | B2 |
| 2600 µM | – | – | B3 |
| 377 µM | – | – | B4 |
